Numbered stars: 1 amine (or outer) side, 2 acyl side, 3 side chain; on linkers, the order of the positions; unused ones are H or OH. Bridge positions count the residues as written; N and C are the ends. Side chains are listed from the residue outwards. Ends that are not written are not given here. * marks the point of attachment. C20 diacid = O=C(O)CCCCCCCCCCCCCCCCCCC(=O)*; γGlu = O=C(O)[C@H](CCC(=O)[*:2])N[*:1]; AEEA = NCCOCCOCC(=O)O
T1: human amylin receptor (amylin 3(a) receptor: human calcitonin receptor co-expressed with RAMP-3) (human, UniProt P30988 25-474; O60896 24-148, limits assumed)
T1 sequence (looked up) 1: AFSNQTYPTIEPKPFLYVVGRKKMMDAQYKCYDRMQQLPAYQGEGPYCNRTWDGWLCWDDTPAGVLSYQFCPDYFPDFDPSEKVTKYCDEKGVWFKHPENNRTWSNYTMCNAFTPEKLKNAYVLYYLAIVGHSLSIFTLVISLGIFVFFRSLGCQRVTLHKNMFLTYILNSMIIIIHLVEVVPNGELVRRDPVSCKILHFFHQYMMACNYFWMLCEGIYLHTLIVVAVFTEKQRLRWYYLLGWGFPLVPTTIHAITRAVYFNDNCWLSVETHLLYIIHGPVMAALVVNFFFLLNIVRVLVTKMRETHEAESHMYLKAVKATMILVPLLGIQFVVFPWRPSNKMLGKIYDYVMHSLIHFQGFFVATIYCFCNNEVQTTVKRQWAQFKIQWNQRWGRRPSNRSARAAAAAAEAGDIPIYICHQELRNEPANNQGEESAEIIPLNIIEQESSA
T1 sequence (looked up) 2: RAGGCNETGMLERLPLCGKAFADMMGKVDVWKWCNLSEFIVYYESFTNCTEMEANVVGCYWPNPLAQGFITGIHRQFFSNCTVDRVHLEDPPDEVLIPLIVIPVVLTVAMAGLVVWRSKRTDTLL

T2: human calcitonin receptor (human, UniProt P30988 25-474)
T2 sequence (looked up): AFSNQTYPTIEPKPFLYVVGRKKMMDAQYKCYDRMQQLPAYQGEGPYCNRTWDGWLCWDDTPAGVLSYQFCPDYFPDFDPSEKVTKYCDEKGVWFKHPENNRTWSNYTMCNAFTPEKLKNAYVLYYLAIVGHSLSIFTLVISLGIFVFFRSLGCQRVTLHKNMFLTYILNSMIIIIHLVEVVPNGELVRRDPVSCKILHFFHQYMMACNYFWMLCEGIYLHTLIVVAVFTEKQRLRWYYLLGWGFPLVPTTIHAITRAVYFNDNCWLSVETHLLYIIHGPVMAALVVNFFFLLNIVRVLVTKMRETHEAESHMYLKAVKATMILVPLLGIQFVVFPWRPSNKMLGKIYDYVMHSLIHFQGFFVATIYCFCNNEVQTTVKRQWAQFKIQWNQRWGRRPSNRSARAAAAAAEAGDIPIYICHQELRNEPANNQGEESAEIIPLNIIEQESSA


Tests used:
[1] = biological target: T1, human amylin receptor (amylin 3(a) …); experiment: cell-based or functional assay
[2] = biological target: T2, human calcitonin receptor; experiment: cell-based or functional assay

| Binder | hAmylin-R funct. EC50 [1] [nM] | Ratio hCT/hAmylin funct. (hCTR EC50 against hAmylin-R EC50) [2] | hCTR funct. EC50 [2] [nM] |
| --- | --- | --- | --- |
| K([AEEA-γGlu-C20 diacid])CNTATCATQRLAGFLRHSSPNFGAIPSSTPVGSNTY-NH2 (disulfide 2-7; N-terminus assumed; SMILES CC[C@H](C)[C@H](NC(=O)[C@H](C)NC(=O)CNC(=O)[C@H](Cc1ccccc1)NC(=O)[C@H](CC(N)=O)NC(=O)[C@@H]1CCCN1C(=O)[C@H](CO)NC(=O)[C@H](CO)NC(=O)[C@H](Cc1c[nH]cn1)NC(=O)[C@H](CCCNC(=N)N)NC(=O)[C@H](CC(C)C)NC(=O)[C@H](Cc1ccccc1)NC(=O)CNC(=O)[C@H](C)NC(=O)[C@H](CC(C)C)NC(=O)[C@H](CCCNC(=N)N)NC(=O)[C@H](CCC(N)=O)NC(=O)[C@@H](NC(=O)[C@H](C)NC(=O)[C@@H]1CSSC[C@H](NC(=O)[C@@H](N)CCCCNC(=O)COCCOCCNC(=O)CC[C@H](NC(=O)CCCCCCCCCCCCCCCCCCC(=O)O)C(=O)O)C(=O)N[C@@H](CC(N)=O)C(=O)N[C@@H]([C@@H](C)O)C(=O)N[C@@H](C)C(=O)N[C@@H]([C@@H](C)O)C(=O)N1)[C@@H](C)O)C(=O)N1CCC[C@H]1C(=O)N[C@@H](CO)C(=O)N[C@@H](CO)C(=O)N[C@H](C(=O)N1CCC[C@H]1C(=O)N[C@H](C(=O)NCC(=O)N[C@@H](CO)C(=O)N[C@@H](CC(N)=O)C(=O)N[C@H](C(=O)N[C@@H](Cc1ccc(O)cc1)C(N)=O)[C@@H](C)O)C(C)C)[C@@H](C)O, also called compound 71) | 0.056 | 9.4 | 0.527 |
| K([AEEA-γGlu-C20 diacid])CNTATCATQRLAHFLRHSSPNFGAIPSSTNVGSNTY-NH2 (disulfide 2-7; N-terminus assumed; SMILES CC[C@H](C)[C@H](NC(=O)[C@H](C)NC(=O)CNC(=O)[C@H](Cc1ccccc1)NC(=O)[C@H](CC(N)=O)NC(=O)[C@@H]1CCCN1C(=O)[C@H](CO)NC(=O)[C@H](CO)NC(=O)[C@H](Cc1c[nH]cn1)NC(=O)[C@H](CCCNC(=N)N)NC(=O)[C@H](CC(C)C)NC(=O)[C@H](Cc1ccccc1)NC(=O)[C@H](Cc1c[nH]cn1)NC(=O)[C@H](C)NC(=O)[C@H](CC(C)C)NC(=O)[C@H](CCCNC(=N)N)NC(=O)[C@H](CCC(N)=O)NC(=O)[C@@H](NC(=O)[C@H](C)NC(=O)[C@@H]1CSSC[C@H](NC(=O)[C@@H](N)CCCCNC(=O)COCCOCCNC(=O)CC[C@H](NC(=O)CCCCCCCCCCCCCCCCCCC(=O)O)C(=O)O)C(=O)N[C@@H](CC(N)=O)C(=O)N[C@@H]([C@@H](C)O)C(=O)N[C@@H](C)C(=O)N[C@@H]([C@@H](C)O)C(=O)N1)[C@@H](C)O)C(=O)N1CCC[C@H]1C(=O)N[C@@H](CO)C(=O)N[C@@H](CO)C(=O)N[C@H](C(=O)N[C@@H](CC(N)=O)C(=O)N[C@H](C(=O)NCC(=O)N[C@@H](CO)C(=O)N[C@@H](CC(N)=O)C(=O)N[C@H](C(=O)N[C@@H](Cc1ccc(O)cc1)C(N)=O)[C@@H](C)O)C(C)C)[C@@H](C)O, also called compound 69) | 0.094 | 13.3 | 1.25 |
| K([AEEA-γGlu-C20 diacid])CNTATCATQRLAKFLRHSSPNFGAIPSSTPVGSNTY-NH2 (disulfide 2-7; N-terminus assumed; SMILES CC[C@H](C)[C@H](NC(=O)[C@H](C)NC(=O)CNC(=O)[C@H](Cc1ccccc1)NC(=O)[C@H](CC(N)=O)NC(=O)[C@@H]1CCCN1C(=O)[C@H](CO)NC(=O)[C@H](CO)NC(=O)[C@H](Cc1c[nH]cn1)NC(=O)[C@H](CCCNC(=N)N)NC(=O)[C@H](CC(C)C)NC(=O)[C@H](Cc1ccccc1)NC(=O)[C@H](CCCCN)NC(=O)[C@H](C)NC(=O)[C@H](CC(C)C)NC(=O)[C@H](CCCNC(=N)N)NC(=O)[C@H](CCC(N)=O)NC(=O)[C@@H](NC(=O)[C@H](C)NC(=O)[C@@H]1CSSC[C@H](NC(=O)[C@@H](N)CCCCNC(=O)COCCOCCNC(=O)CC[C@H](NC(=O)CCCCCCCCCCCCCCCCCCC(=O)O)C(=O)O)C(=O)N[C@@H](CC(N)=O)C(=O)N[C@@H]([C@@H](C)O)C(=O)N[C@@H](C)C(=O)N[C@@H]([C@@H](C)O)C(=O)N1)[C@@H](C)O)C(=O)N1CCC[C@H]1C(=O)N[C@@H](CO)C(=O)N[C@@H](CO)C(=O)N[C@H](C(=O)N1CCC[C@H]1C(=O)N[C@H](C(=O)NCC(=O)N[C@@H](CO)C(=O)N[C@@H](CC(N)=O)C(=O)N[C@H](C(=O)N[C@@H](Cc1ccc(O)cc1)C(N)=O)[C@@H](C)O)C(C)C)[C@@H](C)O, also called compound 74) | 0.666 | 56.3 | 37.5 |
| K([AEEA-γGlu-C20 diacid])CNTATCATQRLASFLRHSSPNFGAIPSSTPVGSNTY-NH2 (disulfide 2-7; N-terminus assumed; SMILES CC[C@H](C)[C@H](NC(=O)[C@H](C)NC(=O)CNC(=O)[C@H](Cc1ccccc1)NC(=O)[C@H](CC(N)=O)NC(=O)[C@@H]1CCCN1C(=O)[C@H](CO)NC(=O)[C@H](CO)NC(=O)[C@H](Cc1c[nH]cn1)NC(=O)[C@H](CCCNC(=N)N)NC(=O)[C@H](CC(C)C)NC(=O)[C@H](Cc1ccccc1)NC(=O)[C@H](CO)NC(=O)[C@H](C)NC(=O)[C@H](CC(C)C)NC(=O)[C@H](CCCNC(=N)N)NC(=O)[C@H](CCC(N)=O)NC(=O)[C@@H](NC(=O)[C@H](C)NC(=O)[C@@H]1CSSC[C@H](NC(=O)[C@@H](N)CCCCNC(=O)COCCOCCNC(=O)CC[C@H](NC(=O)CCCCCCCCCCCCCCCCCCC(=O)O)C(=O)O)C(=O)N[C@@H](CC(N)=O)C(=O)N[C@@H]([C@@H](C)O)C(=O)N[C@@H](C)C(=O)N[C@@H]([C@@H](C)O)C(=O)N1)[C@@H](C)O)C(=O)N1CCC[C@H]1C(=O)N[C@@H](CO)C(=O)N[C@@H](CO)C(=O)N[C@H](C(=O)N1CCC[C@H]1C(=O)N[C@H](C(=O)NCC(=O)N[C@@H](CO)C(=O)N[C@@H](CC(N)=O)C(=O)N[C@H](C(=O)N[C@@H](Cc1ccc(O)cc1)C(N)=O)[C@@H](C)O)C(C)C)[C@@H](C)O, also called compound 73) | 0.085 | 11.3 | 0.961 |
| K([AEEA-γGlu-C20 diacid])CNTATCATQRLAHFLRHSSPNFGAIPSSTNVGPNTY-NH2 (disulfide 2-7; N-terminus assumed; SMILES CC[C@H](C)[C@H](NC(=O)[C@H](C)NC(=O)CNC(=O)[C@H](Cc1ccccc1)NC(=O)[C@H](CC(N)=O)NC(=O)[C@@H]1CCCN1C(=O)[C@H](CO)NC(=O)[C@H](CO)NC(=O)[C@H](Cc1c[nH]cn1)NC(=O)[C@H](CCCNC(=N)N)NC(=O)[C@H](CC(C)C)NC(=O)[C@H](Cc1ccccc1)NC(=O)[C@H](Cc1c[nH]cn1)NC(=O)[C@H](C)NC(=O)[C@H](CC(C)C)NC(=O)[C@H](CCCNC(=N)N)NC(=O)[C@H](CCC(N)=O)NC(=O)[C@@H](NC(=O)[C@H](C)NC(=O)[C@@H]1CSSC[C@H](NC(=O)[C@@H](N)CCCCNC(=O)COCCOCCNC(=O)CC[C@H](NC(=O)CCCCCCCCCCCCCCCCCCC(=O)O)C(=O)O)C(=O)N[C@@H](CC(N)=O)C(=O)N[C@@H]([C@@H](C)O)C(=O)N[C@@H](C)C(=O)N[C@@H]([C@@H](C)O)C(=O)N1)[C@@H](C)O)C(=O)N1CCC[C@H]1C(=O)N[C@@H](CO)C(=O)N[C@@H](CO)C(=O)N[C@H](C(=O)N[C@@H](CC(N)=O)C(=O)N[C@H](C(=O)NCC(=O)N1CCC[C@H]1C(=O)N[C@@H](CC(N)=O)C(=O)N[C@H](C(=O)N[C@@H](Cc1ccc(O)cc1)C(N)=O)[C@@H](C)O)C(C)C)[C@@H](C)O, also called compound 68) | 0.054 | 17.4 | 0.932 |
| K([AEEA-γGlu-C20 diacid])CNTATCATQRLAHFLRHSSPNFGAIPSSTPVGSNTY-NH2 (disulfide 2-7; N-terminus assumed; SMILES CC[C@H](C)[C@H](NC(=O)[C@H](C)NC(=O)CNC(=O)[C@H](Cc1ccccc1)NC(=O)[C@H](CC(N)=O)NC(=O)[C@@H]1CCCN1C(=O)[C@H](CO)NC(=O)[C@H](CO)NC(=O)[C@H](Cc1c[nH]cn1)NC(=O)[C@H](CCCNC(=N)N)NC(=O)[C@H](CC(C)C)NC(=O)[C@H](Cc1ccccc1)NC(=O)[C@H](Cc1c[nH]cn1)NC(=O)[C@H](C)NC(=O)[C@H](CC(C)C)NC(=O)[C@H](CCCNC(=N)N)NC(=O)[C@H](CCC(N)=O)NC(=O)[C@@H](NC(=O)[C@H](C)NC(=O)[C@@H]1CSSC[C@H](NC(=O)[C@@H](N)CCCCNC(=O)COCCOCCNC(=O)CC[C@H](NC(=O)CCCCCCCCCCCCCCCCCCC(=O)O)C(=O)O)C(=O)N[C@@H](CC(N)=O)C(=O)N[C@@H]([C@@H](C)O)C(=O)N[C@@H](C)C(=O)N[C@@H]([C@@H](C)O)C(=O)N1)[C@@H](C)O)C(=O)N1CCC[C@H]1C(=O)N[C@@H](CO)C(=O)N[C@@H](CO)C(=O)N[C@H](C(=O)N1CCC[C@H]1C(=O)N[C@H](C(=O)NCC(=O)N[C@@H](CO)C(=O)N[C@@H](CC(N)=O)C(=O)N[C@H](C(=O)N[C@@H](Cc1ccc(O)cc1)C(N)=O)[C@@H](C)O)C(C)C)[C@@H](C)O, also called compound 61) | 0.051 | 10.9 | 0.554 |
